Experiment: yeast display, Sf9 membrane polyspecificity reagent, FACS + sequencing; frameworks hold sequencing errors
Outline: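 Synthetic nanobody libraries on Saccharomyces cerevisiae BJ5465 were galactose-induced for 36–48 hours, stained 1 hour at 4 °C with 10% biotinylated, detergent-solubilized Sf9 membrane reagent and enriched on streptavidin microbeads. FACS then separated cells into low and high (top ~1%) gates by anti-HA (expression) and streptavidin (reagent binding) fluorescence. Genes were colony-PCR amplified, MiSeq 2 × 250 sequenced and CDR-length filtered. A clone's polyreactivity label is that of its gate of origin.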
In the case of “QVQLVESGGGLVQAGGSLRLSCAASGRIIGYNAMGWYRQAPGKERELVAAIDYTGGSTYYADSVKGRFTISLDNAKNTVYLQMNSLKPEDTAVYYCAKDRTTPWEEDDYWGQGTQVTVSS”, the “polyreactivity (PSR sort gate)” value is reported as “low polyreactivity”.
For “QVQLVESGGGLVQAGGSLRLSCAASGRIIIEYAMGWYRQAPGKERELVASITSSGGRTTFADSVKGRFTISRDNAKNTVYLQMNSLKPEDTSVYYCAAKYYWYYSYSGIPLFDYWGQGTQVTVSS”, the “polyreactivity (PSR sort gate)” value was “low polyreactivity”.
With “QVQLVESGGGLVQAGGSLRLSCAASGRIIKTNAMGWYRQAPGKERELVAAISSSGGRTYYADSVKGRFTISRDNAKNTVYLQMNSLKPEDTAVYYCAAPSLVSFGYWGQGTQVTVSS” the “polyreactivity (PSR sort gate)” value was “high polyreactivity”.
With “QVQLVESGGGLVQAGGSLRLSCAASGRIIKVYAMAWYRQAPGKDRELVAAISSRGGSTYYADSVKGRFTISRDNAKNTVYLQMNSVKPEDTAVYYCAALVTWLHPKGDYWGQGTQVTVSS” the “polyreactivity (PSR sort gate)” value was “low polyreactivity”.
For “QVQLVESGGGLVQAGGSLRLSCAASGRIILVYAMGWYRQAPGKEREVVAAISSGGSTYYADSVKGRFTISRDTAKNPVYLQMNSLKPDDTAVYYSAARTAVGPIRSYWYDYWGQGTQVTVSS”, the “polyreactivity (PSR sort gate)” value was “low polyreactivity”.
In the case of “QVQLVESGGGLVQAGGSLRLSCAASGRIIPLNAMGWYRPAPGKERELVAAISYDGCTYYADSVKGRFTISRDNAKNTVYLQMNSVKPEDTAVYYCAARGSYRGPYNVEYDSWGQGTQVTVSS”, the “polyreactivity (PSR sort gate)” value is reported as “low polyreactivity”.
With “QVQLVESGGGLVQAGGSLRLSCAASGRIIPRNAMGWYRQEPGKERELVAGISRGGSTYYADSVKGRFTISRDNAKNSVYLQMNSLKPEDTAVYYCAAAYQKSPITPNMDYWGQGTQVTVSS” the “polyreactivity (PSR sort gate)” value was “low polyreactivity”.
For “QVQLVESGGGLVQAGGSLRLSCAASGRIIRSYAMVWYRQAPGKERELVAAISYSGGSTYYADSVKGRFTISRDNAKNTVYLQMNSLKPEDTAVYYCAALPGERKYIYYGYDYWGQGTQVTVSS”, the “polyreactivity (PSR sort gate)” value was “high polyreactivity”.
In the case of “QVQLVESGGGLVQAGGSLRLSCAASGRIISNYAMGWYRQAPGNERELVAAITVIGGRTYYADSVKGRFTISRDNAKNTVYLQMNSLKPEDTAVYYCNAEEYWYDGFYWLSYDYWGQGTQVTVSS”, the “polyreactivity (PSR sort gate)” value is reported as “high polyreactivity”.
In the case of “QVQLVESGGGLVQAGGSLRLSCAASGRIISYNDMGWYRPAPGKERELVAAISWGGGSTYYADSVKGRFTISRDNAKNTVYLQMNSLKPEDTAVYYCSKGWYRIKRNDYWGQGTQVTVSS”, the “polyreactivity (PSR sort gate)” value is reported as “low polyreactivity”.
In the case of “QVQLVESGGGLVQAGGSLRLSCAASGRIITRNVMGWYRQAPGKERELVAAISTSGGSTFYADSVKGRFTISRDNAKKTVYLQMNSLKPEDTAVYYCAKRRYGKLEFWGQGTQVTVSS”, the “polyreactivity (PSR sort gate)” value is reported as “high polyreactivity”.
In the case of “QVQLVESGGGLVQAGGSLRLSCAASGRIITYYAMGWYRQAPGKERELVAAISRTGGTTYYADSVKGRFTISRDNAKNTVYLQMNSLKPEDTAVYYWNAVKAPYLRYDYWGQGTQVTVSS”, the “polyreactivity (PSR sort gate)” value is reported as “high polyreactivity”.
With “QVQLVESGGGLVQAGGSLRLSCAASGRIITYYAMGWYRQAPGKERELVAAITASGSRTYYADSVKGRFTISRDTAKNTVYLQMNSLKPEDTAVYYCAALSRLSPLSGSYYWGQGTQVTVSS” the “polyreactivity (PSR sort gate)” value was “high polyreactivity”.
In the case of “QVQLVESGGGLVQAGGSLRLSCAASGRIIWANTMGCYRQAPGKEREFVAAISWSTDSTYYADSVKGRFTISRDNAKNTVYFQMNSLKPEDTAVYYCNARAGYPWGVFYVTYVYWGQGTQVTVSS”, the “polyreactivity (PSR sort gate)” value is reported as “low polyreactivity”.
With “QVQLVESGGGLVQAGGSLRLSCAASGRIIWSNTMGWYRQAPGKESELVAASSGRGGSTYYADSVKGRFTISRDNAKNTVYLQMNSLKPEDTAVYYCAAKPTRSRKIYEYWGQGTQVTVSS” the “polyreactivity (PSR sort gate)” value was “low polyreactivity”.
In the case of “QVQLVESGGGLVQAGGSLRLSCAASGRIIYAYAMGWYRQTPGKERELVAAISTRGGTTYYADSVKGRFTISRDNAKNTVYLQMNSLKPEDTAVYYCNALRVSRRVGYDSWGKGTQVTVSS”, the “polyreactivity (PSR sort gate)” value is reported as “high polyreactivity”.
With “QVQLVESGGGLVQAGGSLRLSCAASGRIIYKNAMGWYRQAPGKETELVAAINSSGGSTYYGDSVKGRFTISRDNAKNTVYLQMNCLKPEDSAVYYCAAYDYGRFGKLNYWGQGSQVTVSS” the “polyreactivity (PSR sort gate)” value was “low polyreactivity”.
With “QVQLVESGGGLVQAGGSLRLSCAASGRIIYRNAMGWSRQSPGKEREMVATITKNGGATYYADSVKGRFTISRDNAKNTVYLQMNTLKPEDTAVYYCATGSRGYKASPQWRDYWGQGTQVTVSS” the “polyreactivity (PSR sort gate)” value was “high polyreactivity”.
In the case of “QVQLVESGGGLVQAGGSLRLSCAASGRIIYTYALGWYRQAPGKERELVAAISWSGGSTYYADSVKGRFTISRDNAKNTVYLQMNSLKREDTAVYYCNAAYYGYENLSKRGYWGQGTQVTVSS”, the “polyreactivity (PSR sort gate)” value is reported as “high polyreactivity”.
With “QVQLVESGGGLVQAGGSLRLSCAASGRIIYWYAMGWYRQAPGKERELVAAIDWSAASTYYADSVKGRFTISRDNAKNTVYLQMNSLKPEDTAVYYCNRRGRGGESYRTTPGALGYWGQGTQVTVSS” the “polyreactivity (PSR sort gate)” value was “low polyreactivity”.
In the case of “QVQLVESGGGLVQAGGSLRLSCAASGRIIYYAMGRYRQAPGKERELVAAITRNGGTYADSVKGRFTISRDNSKNTVYLPMISLKAEDSAVYYCNADPDFGDDYWGQGTQVTVSS”, the “polyreactivity (PSR sort gate)” value is reported as “low polyreactivity”.
For “QVQLVESGGGLVQAGGSLRLSCAASGRILAANAMGWYRQAPGKERELVAAISWSGGRTYYADSVKGRFTISRDNAKNTVYLQMNSLKPEDTAVYYCNKLALAGYDYWGQGTQVTVSS”, the “polyreactivity (PSR sort gate)” value was “high polyreactivity”.
For “QVQLVESGGGLVQAGGSLRLSCAASGRILADNAMGWYRQAPGKERELVAAISESGGSTYYADSVKGRFTISRDNAKNTVYLQMNSLKAEDTAVYYCAADTASIYYEYYYWGQGTQVTVSS”, the “polyreactivity (PSR sort gate)” value was “low polyreactivity”.
With “QVQLVESGGGLVQAGGSLRLSCAASGRILDKYAMGWYRPAPGKERELVARIRFSGGDTYADSVKGRFTISRDNAKNTVYLQMNSLKPEDTAVYYCNKDRRNRWDAFDYWGQGTQVTVSS” the “polyreactivity (PSR sort gate)” value was “low polyreactivity”.
In the case of “QVQLVESGGGLVQAGGSLRLSCAASGRILDYYAMGWYRQAPGKERELVAAIRRRGVITYADSVKGRFTISRDNAKNTVYLQMNSLKPEDTAVYYCAAGGYEYGYWGQGTQVTVSS”, the “polyreactivity (PSR sort gate)” value is reported as “low polyreactivity”.
In the case of “QVQLVESGGGLVQAGGSLRLSCAASGRILEGYAMGWYRQAPGKEELVAAITSDASTYYADSVKGRFTMSRDNAKNTVYLQINSLKPEDTAVYYCAADTYDNDYYYWGQGTLVTVSS”, the “polyreactivity (PSR sort gate)” value is reported as “high polyreactivity”.
For “QVQLVESGGGLVQAGGSLRLSCAASGRILGAYAMGWYRQAPGKERELVASISSGGRTYYADSVKGRFTISRDNAKNTVYLQMNSLKPEDTAVYYCAAYVYTSFLYYYWGQGTQVTVSS”, the “polyreactivity (PSR sort gate)” value was “high polyreactivity”.
With “QVQLVESGGGLVQAGGSLRLSCAASGRILGFYAMGWYRQAPGKEMELVARINWSGTRTYYADSVKGRFTISRDNAKNTVYLQMNSLKPEDTAVYYCAAERYPYGVTYSKLDYWGQGTQVTVSS” the “polyreactivity (PSR sort gate)” value was “high polyreactivity”.
With “QVQLVESGGGLVQAGGSLRLSCAASGRILGFYAMGWYRQAPGKERELDARINWSGTRTYYADSVKGRFTISRDNAKNTVYLQMNSLKPEDTAVYYCAAERYPYGVTYSKLDYWGQGTQVTVSS” the “polyreactivity (PSR sort gate)” value was “high polyreactivity”.
In the case of “QVQLVESGGGLVQAGGSLRLSCAASGRILGGNAMGWYRQAPGKERELVAAITSGGTTNYADSVKGRFTISRDNAKNTVYLQMNSLKPEDTAVYYCNADWTDGDWADMDYWGQGTQVTVSS”, the “polyreactivity (PSR sort gate)” value is reported as “low polyreactivity”.
For “QVQLVESGGGLVQAGGSLRLSCAASGRILIGYTMGWYRQAPGTERELVARNNYSGGSTYYADSVKGRFTISRDISKNTVYLQMNSLKPEESGDYYCAADVRRGYYTWPPRRVYYWGQGTQVTVSS”, the “polyreactivity (PSR sort gate)” value was “high polyreactivity”.
With “QVQLVESGGGLVQAGGSLRLSCAASGRILIHYAMRWYRQAPGKERELVAAIDNSVSTYYADSVKGRFTISRDNAKNTVYLQMNSLKPEDTAVYYCAADHWTHSVWGSGYKYYYWGQGTQVTVSS” the “polyreactivity (PSR sort gate)” value was “high polyreactivity”.
For “QVQLVESGGGLVQAGGSLRLSCAASGRILKSYAMGWCRHAPGKERELVAAIRSGGSTYYADSVKGRFTISRDNAKNTVYLQMYSLKPEDTAVYYCNRVTRTWKVNYHYWGQGTQVTVSS”, the “polyreactivity (PSR sort gate)” value was “high polyreactivity”.
In the case of “QVQLVESGGGLVQAGGSLRLSCAASGRILKWYAMGWYRQAPGKERELVAAISARGGSTFYADSVKGRFTISRDNAKNTVYLQMNSLKPEDTAVYYCNTYYRGGPYDVAYDYWGQGTEVTVSS”, the “polyreactivity (PSR sort gate)” value is reported as “high polyreactivity”.
In the case of “QVQLVESGGGLVQAGGSLRLSCAASGRILLGNVMGWYRQAPGKERELVAAISIGGNTNYADSVKGRFTISRDNANNTVYLQMNSLKPEDTAVYYCNARSLVFPITFWEYDYWGEGTQVTVSS”, the “polyreactivity (PSR sort gate)” value is reported as “low polyreactivity”.
In the case of “QVQLVESGGGLVQAGGSLRLSCAASGRILNYNAMGWYRQAPGKERELVAAITSSGGSTYYADSVKGRFTISRDNAKNTVYLQMNSLKPEDTAVYYCNALITYSSDYWGQGTQVTVSS”, the “polyreactivity (PSR sort gate)” value is reported as “low polyreactivity”.
For “QVQLVESGGGLVQAGGSLRLSCAASGRILPFNAMGWYRQAPGKERELVAAIRWRGSSTYYADSVKGRFTISRDIAKNTVYLQMNSLKPEDTAVYYCAAPSSVRGKVISAYYGYWGQGTQVTVSS”, the “polyreactivity (PSR sort gate)” value was “high polyreactivity”.
For “QVQLVESGGGLVQAGGSLRLSCAASGRILPFYAMGWYRQAPGKERELVATISWTSDSTYYADSVKGRFTISRDNAKNTVYLQMNSLKPEDTAVYYCAREYTYTYASTVIYDHWGQGTQVTVSS”, the “polyreactivity (PSR sort gate)” value was “low polyreactivity”.
In the case of “QVQLVESGGGLVQAGGSLRLSCAASGRILRGNAMGWYRQAPGKERELVADINYSDGSTYYADSVKGRFTISRDNAKNTVYLQMNSLKPEDTAVYYCAADLRITSYNSWGHGTQVTVSS”, the “polyreactivity (PSR sort gate)” value is reported as “low polyreactivity”.
With “QVQLVESGGGLVQAGGSLRLSCAASGRILRRNTMGWYRQAPGKERELVATITRGGGNTYADSVKGRFTISRDNAKNTVYLQMNSLKPEDTAVYYCARAYGSYDYWGQGTQVTVSS” the “polyreactivity (PSR sort gate)” value was “high polyreactivity”.
With “QVQLVESGGGLVQAGGSLRLSCAASGRILRSYAMGWYRQAPGKERELVAAISWRGGSTYYADSVKGRFTISRDNAKNTVYLQMNSLKPEDTAVYYCAKRSYYPARYDYWGQGTQVTVSS” the “polyreactivity (PSR sort gate)” value was “high polyreactivity”.
For “QVQLVESGGGLVQAGGSLRLSCAASGRILSEYPMGWYRQARGKERELVAAITISDGSTYYADSVKGRFTISRDNAKNTVYLQMNSVNPDDTAVYYCAADSYDYNPAYLFCYKYYYWGQGSQVTVSS”, the “polyreactivity (PSR sort gate)” value was “low polyreactivity”.
With “QVQLVESGGGLVQAGGSLRLSCAASGRILSVYAMGWYRQAPGKERELVAAIEYSGGSTNYADSVKGRFTISRDNAKHTVYLQMNSLKPEDTAVYYCNREGGAIAWRYLLEYLYSWGQGTQVTVSS” the “polyreactivity (PSR sort gate)” value was “low polyreactivity”.
